Reference: a protein production outcome set (Wang et al. 2014)

Assay: label from the status in PepcDB records

Row | Sequence | protein production
1 | MKTEKFFTHPIGVFIAAIVATFLWGSAFPFIKLSYVELGIQPQEVGEQILFAGYRFFLSGFMLLLFFKVLGKDMSFKKGTGKQLIQIGLFQTFLQYICFYIGMSYSSGIEGAIISGTSSFFQILLAHFLYKDDALNMRKIIGVSIGFCGVVLVNMPSDGSLSFHFGIGSLLLLSAAMLYSYGNILAKEGSKTLDVGYMTAYQMMFGSIGLLCIGALQVGVMPFTFSLHALLMLIYLSFLSAAGFCIWNTIMKYNKVGKVSMYMFFIPVFGVLLSSMILGEAIHSFVLLGLACVAAGIIVVNRTPAKQKIEKEKQVA | failed
2 | MKLPRFGVEEWLNVHENSAIYDIAGVSISSLTLEELFALSGTNPEDFYKKLQGTKLNYGWIEGSPAFKKSVSQLYTGVKPEQILQTNGATGANLLVLYSLIEPGDHVISLYPTYQQLYDIPKSLGAEVDLWQIEEENGWLPDLEKLRQLIRPTTKMICINNANNPTGAVMDRTYLEELVEIASEVGAYILSDEVYRSFSELDVPSIIEVYDKGIAVNSLSKTYSLPGIRIGWVAANHQVTDILRDYRDYTMICAGVFDDLVAQLALAHYQEILERNRHILEENLAILDQWIEEEPLVSYIRPAVVSTSFVKIAVDMPMEDFCLQLLQEHGVLLVPGNRFERDGYVRLGFACEQETLIKGLEKLSQFLRRFDKEN | not failed
3 | MRARPYPTSTYFVSTADGRLPAMSQPIAAPFRQQLLDLVARIPPGRVMTYGQLALLAGQPGAARQAGAVMHSLKDSDLPWQRVINAQGRVSTYKVGLGEVQEGLLRAEGIEFDDAGRCDLSRYQWWPDENAANIAQRLL | failed
4 | MPSEKQPQSKGNKMAILKLDEHLYISPQLTKADAEQIAQLGIKTIICNRPDREEESQPDFAQIKQWLEQAGVTGFHHQPVTARDIQKHDVETFRQLIGQAEYPVLAYCRTGTRCSLLWGFRRAAEGMPVDEIIRRAQAAGVNLENFRERLDNARV | not failed
5 | SGCRCCKIIQSYLFDPVQVPSPGYVNEVNSCKLDEDDTDKLKGKWSSEVLVQKNDPQRQGSKKTESSSRTADPWEPCWPHQGPLPQGDAGGEHHACGVNGIGPAATPQPTGNSSPTQDDRGSWASTANTVPPTQPFLEGGGTRKQDCVLLASEGTQVMRNGDSRAPSEAESFALEVQDHVFQIPAPDYLQHWGPAGDNVDHNEKDCVFKNHTEDESLEGIQPPVGEHGLNTPFSVRRSWDSLNEDVETEVLSICFNEKGPVHAMPVVDSGNRQEDTHGSDGDGDGEIVDEDAAVAEALAALEAATAGEDLDETD | not failed
6 | MISGDTLSAKKPKSVPQEEDQDPPSQSIALLDNHTDSSGSDSSTRSISSCFIFTSLLLVTCIALSAASAFAFLFFSSQKPVLSLNQISKSPAFDRSVARPLKKLDKPVVLLISSDGFRFGYQFKTKLPSIHRLIANGTEAETGLIPVFPTLTFPNHYSIVTGLYPAYHGIINNHFVDPETGNVFTMASHEPEWWLGEPLWETVVNQGLKAATYFWPGSEVHKGSWNCPQGLCQNYNGSVPFDDRVDTILSYFDLPSNEIPSFMTLYFEDPDHQGHQVGPDDPQITEAVVNIDRLIGRLIDGLEKRGIFEDVTMIMVGDHGMVGTCDKKLVVLDDLAPWIKIPSSWVQYYTPLLAIQPPSGHDAADIVAKINEGLSSGKVENGKYLKVYLKEDLPSRLHYVDSDRIPPIIGLVDEGFKVEQKKSKAKECGGAHGYDNAFFSMRTIFIGHGPMFSKGRKVPSFENVQIYNVISSILGLKAAPNNGSDEFSSSILLPRV | failed
7 | MAEQHGDSPVPVELSVVGGFLIAVIVGMLFPADAMTRWMFHPAVVAGCCWAGQLWYVGRKLSVPPAAGNPWRYIFGMANTVTLLRGGLYAVVAGFLVVPATTDLAWVPAACYGVGVVLDKLDGTVARTVGEQTQLGTRLDMAFDTFGFVVAPLVAVFWGQLPVLYLSLSAARYAYVGGIRWRRYRDRPVFERPDSNLGKYLAGVQMVFITAALVPVVPTELVFRLTPVVLAPSLAVFLRDFLVASGRLPREWFDRQR | failed
8 | MPAAHPSAISFARQTKAIAMAAKIVPAPDYEDRVRASFARQQAMATIGAELTLVTPGIIEIEMPYSAALTQQHGFLHAGVISTALDSACGYAAFSLMPENSGVLTIEFKVNLLAPGRGERFLFRGSVTKPGRTIIVADGQAYAFAADGEAKLIATMTGTMMTVVGRDGIAG | failed
9 | MVEEKVVEKGKERAVEVTKWRRVFDDYRAMSDEILRPDEPKKEKFLEAMRKYLTKQNWPFLLPYKLTLEACTKCGTCAEACTMYLGSGRKKIYSPVYRSDMLRKIYKKHFTLTGKLFGPLIGAKDPTEDDINALAESAYRCTVCRRCALACPFGLDNGLITRETRKIFADLGIVPDELKDNGVENQLKYGNAPKIPYEAFMDILEFIKEDIEDEKGVEVEIPVDKKGAKYLIMNNAGDYLAFTETVQGIVEIMNYVGEDWTLNSPKTGVNDIVNYGLFYSDEDLVRVMKAHVETAKKLDVEYLVVGECGHAYDSIAHFAKDLIPPEERPFKVISWMELLDQFIREGKLKLDKEKNPEPVTFHDSCKWGRTGGIYEEPRRILQAACKDFREMYPNREWNYCCGGGGGFAIMAKDDFLKFRMETYGKMKVQQLKQTGAKIIATICSNCKAQFREMINYYNLDMRFSGVSELVANALVYE | failed
10 | MRKIVLFGDSITAGYLDEAVSPVLVDLVKRDIAAMGLEEVAVINAGMPGDTTEDGLKRLNKEVLIEKPDEVVIFFGANDASLDRNITVATFRENLETMIHEIGSEKVILITPPYADSGRRPERPQTRIKELVKVAQEVGAAHNLPVIDLYKAMTVYPGTDEFLQADGLHFSQVGYELLGALIVREIKGRLKPKQA | not failed
11 | MQLWIYGVLIRLVTPAVFVWLWLRGGKDSRYRQNWSERLALGSVDKKQHGCLVIHSVSVGETLAAKRLIEQLLRQEPGQKILITCMTPTARELIQQHFADTVSCRYWPIDSPGAAKRFVRKFKPKAVWVMETELWPQMLNQFSKANIPVALLNARLSARSAAGYRRFHWLMKKVWKQLTLVSVQNKETARRMKVLGVPDSVLFVDGNLKYDIELSVTDIEKALLWRQSCASRHVWLASSSHPGEHELLLEAHKLIQQDLSNSCLIIAPRHPEQFEVVAKMIRESGLKLARRSESNAIPEDCDVFLADSMGEMMLWGQLASASFVGGSIIERGGHNPLEVIAAGSNVMSGRHVFNFPQVYGELAKAGAVQWVNNAGEIKQAVELMQQTAVMKAQHEAAKSVLQTHQGATLRVLKRALEYTLTGSGMIKTEQSPQGLIRYDSDIFETIEDKHFTAQYWQQQKSIAGNSTGRATVWFIQQGDLGLLLRHYYRGGLVGKINKDRFLREPAEKSRAIHEFDLLLKLREIGLPVPRPVAARMEKTAVFSYKADILVEVIPGAVDVFRLLREKKLSAELWQKLGSVIKELHDTGVYHSDLNCHNLMLDDKDKAWIVDFDKCDFRENGDWKEANIQRLLRSLRKEKEKNETFYWKESRDWPELLTGYRR | failed
12 | MKTTIQTITLILGLFISSLAIASPEFPTQEPMGGKTFGHSVKHVGNGIYVFRWWVYRNFFVVTDDGVIVSDPLNPKAAKLLQSEIRKITDKPVKYVVYSHNHHDHISGGNIFKAEGAKFIGHKNLLKQLKDHPSPVLPIPDIVFEDTYTLTLGNRTLELSYFGPNHGDSLVVMRFPKEKILFVVDIVTPRRVAFRGMPDFWPDEWVRSLKEIELMDVDYVISAHGPENQPAIDPASVIKEQRVYIEDLMAAVKLKMDEGVHSPDALRKQVKLPKYEHWQYYEQWLPMNIERIWAYYHMGW | failed
13 | MIREFFQKYFIDPIKYNTGYNPVNTLVYAIILGIATLLVYKVLKRLKIEINNAFFRALIPYMIFGAFTRALTDAGVFPRTYLTVSPGIYFLVFVIAFSALLVSHKFAKDWRGVFLWFGWGLVMVDLAAMSANISKINFDFAVLKYFIPFLILAELVVFLLSKKVSLVRENSYLFYAHFYDATTTFVGVDFMGYWEQHVLPRLLIGLTGTAAVMYVLKFIILFAAVWLLKELEKEGEEKELLDFIKMVIFILGFAPGTRNLLRMLMGV | failed
14 | RIVLRREFEGNGILDGIGKKIEEGDYDIVEYNSDKWYQIHKYYSGIDNSLKGVYINISTPPELLRGKIRYLDLEIDIAIRDSEIALLDEDELNKKSIYMPSS | failed
15 | MDISILQAVLIGLWTAFCFSGMLLGLYTNRCIVLSLGVGVILGDIQTALAVGAISELAYMGFGVGAGGTVPPNPIGPGIFGTLMAITTAGTKGKITPEAALALSTPIAVGIQFLQTATYTAFAGAPETAKKALQAGNFRGFKIAANGTIWAFAGLGFGLGVLGALSTQTLTDLFALIPPVLLNGLTLAGKMLPAIGFAMILSVMAKKELIPYILLGYVLAVYFGLPVLTPTANGDGVLTSVATNSVLGVPTIGVAIIATIFALLDIFRKPAAPTKETKTEGDNQDDWI | failed
16 | MPKLDRYLLSDFTQSFLATLIVLLVVSVGGVLVDILGNIADGRIPARLLLSQVGLQFVAYLPIILPLALMLGLLLALARLYRDSEMAVITAIGVGPTRMLRPLLMLVVPVVVVIGLCSLWLGPWASRTAEAMLEDANRSVLMAGLESGQFTPLSDGGVVYMQTISADGKGLGKIFLQRQQNDRIDVVTADRGALFFEGKTDRYLHLDDGYRTEGPAGGATLDYRLMKFASSDIALPDRTRLHDANDPEVMWTTQLLSDERPAARAQLHERLAPPLLALAFAMLTLPLSRSAPRQQRYGRIMLAFLAYMVGTNLMIVGTQWIANGKAPAALGLWWLTLPLLAVAVWAYARDGRVRRPRARA | failed
17 | MGCVRDLTQRGMRQGAKPVRYFGERTDVSDLLAHTLQTVADILGPHGPATKAAEHSYTPNDYSIHFFLQLAVILLACRVTGWFGKKFLAQPQVVGEMIAGVVLGPSLLGLLFPDFQLSLFPKETRNILYVGAQLGVGLYMFLVGASFQAGHFKTKARSAMSVSFAGIAAPFAIAVIITPFLLKVPGLFAPTITPGAATLFMGACIALTAFPMLARIINERGLQKTSLGTLSLTAGAFDDAVSWCVLAVVLAMFGGGPGVAVLAIGGGLLWVLFVLTLGPKILAPLGRMVEREGELSAHALALVILAFCVSAFLMDAVGIHAIFGGFIMGVVMPRGLLTQELKKKVEPLVVVLLLPMFFTYSGLNTRLDMVNSLDLLLIALGILACSILAKWGACYVAARATGEDHATAMGIGALMNSRGLMELIIINIGLQKGIIGPTLFAMLVLMAIVTTMMASPLFEIVYGKKARERGELDAVPDAKRA | failed
18 | ERRAPRKGNTLYVYGEDMTPTLLRGAFSPFGNIIDLSMDPPRNCAFVTYEKMESADQAVAELNGTQVESVQLKVNIARKQPMLD | not failed
19 | QLIDIGVNLTNSSFHDQQAAIVERALEAGVTQMLLTGTSLAVSEQALELCQQLDASGAHLFATAGVHPHDAKAWDTDSERQLRLLLSEPRVRAVGECGLDFNRDFSPRPLQEKALEAQLTLAAQLRLPVFLHERDASERLLAILKDYRDHLTGAVVHCFTGEREALFAYLDLDLHIGITGWICDERRGTHLHPLVGNIPEGRLMLESDAPYLLPRSLRPKPKSGRNEPAFLPEVLREVALHRGESAEHTAAHTTATARDFFQLP | not failed
20 | MALMSDKFLSIVIPAYNSEKYIEKNLMFLSRQTSNNFEVIVVDDGSTDNTCEVSEACLENFKINHRVIRCEENRGQSVARNIGINYSRGKYILFLDSDDFAENNLVQILERNMFNEPDIVFFDYKRIKEGDSVNVNIAQNFEFGKIKSGEEVFNAYKDNKIRLWTGSLVYNKEFLNKNKLRFLEGAHGAEDLNFIFKALLSSKKVRGIEDSLVFYCQRGDSLTNNPDIYKNITVVESMEDVAKFIDENKLDKKLKEAIEKEFTCEHIMYQILGYLNSETKKDTLSVLKNKNVKKYLKKATIKTNRYGRSMYTYMKMAAYFPNLFIKTYLKNTGKLEHHHHHH | not failed
21 | MREHFVNEFMAVLSNKLTEDALSIVYQSLTLFVSNYEISERNTEVVPYTGYLPECYETYFVTRKIEGMSMKSLELYNLVLKDFFFKLNKEICKISTNDIRVYLYKNQQERNLSNSTLDTKRTIIHAFFEWAANEGYIGSNPCRNIKPIKYERPKRKPLTGIELEKVRNACDNLKDKALLELFYSTGCRVTEMERLDISDIDFQTKEVLLFGKGDKHRISYLNAKAEIAIRNYLDSRNDNEEALFVSDRKPYGRLKKPAIEKRIRVLGEKSGIGRRLYPHLIRHTTATDGLDRGMPVEEVQQILGHVNIATTMIYAEVSRANVKNNHRKCIV | failed
